Assay results: US20100158968A1 (PURDUE RESEARCH FOUNDATION, published 2010)

T1: PRAK (h) (p38 regulated/activated protein kinase) (human, UniProt Q8IW41 1-473, limits assumed)
T1 sequence (looked up): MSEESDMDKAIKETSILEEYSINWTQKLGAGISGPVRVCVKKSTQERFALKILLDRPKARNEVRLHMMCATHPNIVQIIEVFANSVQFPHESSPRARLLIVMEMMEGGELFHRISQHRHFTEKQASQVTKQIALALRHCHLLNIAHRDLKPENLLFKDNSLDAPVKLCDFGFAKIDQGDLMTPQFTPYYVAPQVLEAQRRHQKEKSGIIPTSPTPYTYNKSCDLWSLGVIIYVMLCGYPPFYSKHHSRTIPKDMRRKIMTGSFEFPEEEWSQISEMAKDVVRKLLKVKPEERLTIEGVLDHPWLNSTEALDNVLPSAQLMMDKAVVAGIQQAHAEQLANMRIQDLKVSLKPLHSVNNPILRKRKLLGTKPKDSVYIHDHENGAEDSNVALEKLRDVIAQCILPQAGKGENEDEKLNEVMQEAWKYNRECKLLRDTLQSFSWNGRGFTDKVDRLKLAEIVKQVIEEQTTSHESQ

T2: IRAK4 (h) (IL-1 receptor (IL-1R)-associated kinase) (human, UniProt Q9NWZ3 1-460, limits assumed)
T2 sequence (looked up): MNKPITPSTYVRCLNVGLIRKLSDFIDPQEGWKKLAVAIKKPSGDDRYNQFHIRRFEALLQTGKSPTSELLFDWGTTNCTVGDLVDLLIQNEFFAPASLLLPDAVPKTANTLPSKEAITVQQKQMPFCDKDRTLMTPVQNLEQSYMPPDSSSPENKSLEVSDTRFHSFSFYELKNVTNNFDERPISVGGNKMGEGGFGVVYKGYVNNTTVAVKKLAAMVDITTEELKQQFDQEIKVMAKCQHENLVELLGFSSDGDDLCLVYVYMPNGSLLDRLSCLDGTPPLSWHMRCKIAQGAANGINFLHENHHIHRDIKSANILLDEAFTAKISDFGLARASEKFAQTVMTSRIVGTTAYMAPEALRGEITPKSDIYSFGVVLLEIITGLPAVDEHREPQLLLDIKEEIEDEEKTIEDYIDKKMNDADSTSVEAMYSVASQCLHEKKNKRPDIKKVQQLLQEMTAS


How the values were obtained:
Test in all cases: cell-based or functional assay
[1] = target: T3, mitogen-activated protein kinase-activated protein kinase 2 (human MK2) (human, UniProt P49137 46-400, limits assumed)
[2] = target: T3, mitogen-activated protein …; remark: listed apart in the source
[3] = target: MK3 (mitogen-activated protein kinase-activated protein kinase 3) (human, UniProt Q16644 1-382, limits assumed)
[4] = target: T1, PRAK (h) (p38 regulated/activated …)
[5] = target: CaMKI (h) (calcium/calmodulin-dependent protein kinase) (human, UniProt Q14012 1-370, limits assumed)
[6] = target: T2, IRAK4 (h) (IL-1 receptor …)
[7] = target: MLCK (h) (myosin light chain kinase) (human)
[8] = target: PKBβ (h) (protein kinase B) (human, UniProt P31751 120-481, limits assumed)
[9] = target: ROCK-I (h) (Rho-associated serine/threonine kinase) (human, UniProt Q13464 17-535, limits assumed)
SAPK2a (h) (p38α) = SAPK2a (h) (p38α) (human, UniProt Q16539 1-360)
Sequence of SAPK2a (h) (p38α) (Q16539 whole entry): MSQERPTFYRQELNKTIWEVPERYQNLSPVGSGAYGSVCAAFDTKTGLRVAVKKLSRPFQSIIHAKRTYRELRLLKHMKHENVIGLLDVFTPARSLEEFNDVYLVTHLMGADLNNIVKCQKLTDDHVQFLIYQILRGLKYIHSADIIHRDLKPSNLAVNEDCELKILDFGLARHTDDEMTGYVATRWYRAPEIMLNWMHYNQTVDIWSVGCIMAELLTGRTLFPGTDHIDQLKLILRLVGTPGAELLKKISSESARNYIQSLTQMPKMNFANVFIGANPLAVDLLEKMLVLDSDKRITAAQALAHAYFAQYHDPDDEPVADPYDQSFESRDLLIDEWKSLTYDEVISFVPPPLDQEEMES

T3 sequence (P49137 46-400 limits assumed): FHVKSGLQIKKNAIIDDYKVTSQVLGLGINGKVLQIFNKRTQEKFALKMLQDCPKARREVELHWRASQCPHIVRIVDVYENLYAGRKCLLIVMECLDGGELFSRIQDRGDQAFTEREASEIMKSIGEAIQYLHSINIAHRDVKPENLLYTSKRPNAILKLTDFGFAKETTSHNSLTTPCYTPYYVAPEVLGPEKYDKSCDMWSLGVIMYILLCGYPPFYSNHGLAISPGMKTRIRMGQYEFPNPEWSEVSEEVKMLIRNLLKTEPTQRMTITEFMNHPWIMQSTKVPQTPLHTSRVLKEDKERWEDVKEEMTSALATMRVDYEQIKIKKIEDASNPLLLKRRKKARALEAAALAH
Sequence of PKBβ (h) (protein kinase B) (P31751 120-481 limits assumed): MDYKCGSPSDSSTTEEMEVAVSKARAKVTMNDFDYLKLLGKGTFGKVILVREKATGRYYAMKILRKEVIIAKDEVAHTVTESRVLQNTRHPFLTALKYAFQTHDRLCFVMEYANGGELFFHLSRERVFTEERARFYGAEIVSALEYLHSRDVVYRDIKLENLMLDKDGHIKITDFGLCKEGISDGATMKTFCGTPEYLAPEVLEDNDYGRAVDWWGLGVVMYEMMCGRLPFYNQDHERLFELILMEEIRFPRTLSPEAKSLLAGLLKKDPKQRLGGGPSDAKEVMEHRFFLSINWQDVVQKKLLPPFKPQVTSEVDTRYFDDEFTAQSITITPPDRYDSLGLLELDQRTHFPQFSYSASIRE
Sequence of ROCK-I (h) (Rho-associated serine/threonine kinase) (Q13464 17-535 limits assumed): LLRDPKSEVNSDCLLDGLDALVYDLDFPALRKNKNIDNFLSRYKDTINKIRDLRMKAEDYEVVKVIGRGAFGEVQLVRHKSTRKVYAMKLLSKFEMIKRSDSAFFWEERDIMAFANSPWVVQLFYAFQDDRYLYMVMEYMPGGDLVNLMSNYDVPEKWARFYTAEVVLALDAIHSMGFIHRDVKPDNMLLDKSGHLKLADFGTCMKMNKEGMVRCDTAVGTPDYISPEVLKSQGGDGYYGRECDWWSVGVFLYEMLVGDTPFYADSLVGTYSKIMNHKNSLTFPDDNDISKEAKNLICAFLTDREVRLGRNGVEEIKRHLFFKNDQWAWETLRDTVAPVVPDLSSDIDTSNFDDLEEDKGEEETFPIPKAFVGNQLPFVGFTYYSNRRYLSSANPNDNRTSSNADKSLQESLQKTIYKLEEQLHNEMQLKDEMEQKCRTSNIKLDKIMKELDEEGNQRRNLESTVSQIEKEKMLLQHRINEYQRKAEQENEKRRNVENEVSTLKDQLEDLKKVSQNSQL
Sequence of MK3 (mitogen-activated protein kinase-activated protein kinase 3) (Q16644 whole entry): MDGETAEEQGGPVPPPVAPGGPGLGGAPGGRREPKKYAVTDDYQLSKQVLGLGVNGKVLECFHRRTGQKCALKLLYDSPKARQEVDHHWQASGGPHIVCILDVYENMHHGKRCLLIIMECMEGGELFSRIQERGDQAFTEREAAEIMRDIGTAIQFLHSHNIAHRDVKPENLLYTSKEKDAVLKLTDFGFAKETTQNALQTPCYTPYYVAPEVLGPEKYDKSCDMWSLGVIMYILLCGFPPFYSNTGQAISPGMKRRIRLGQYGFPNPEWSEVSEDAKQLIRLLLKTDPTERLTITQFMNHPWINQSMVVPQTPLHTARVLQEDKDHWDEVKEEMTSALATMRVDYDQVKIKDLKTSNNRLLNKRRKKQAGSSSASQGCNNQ
Sequence of CaMKI (h) (calcium/calmodulin-dependent protein kinase) (Q14012 whole entry): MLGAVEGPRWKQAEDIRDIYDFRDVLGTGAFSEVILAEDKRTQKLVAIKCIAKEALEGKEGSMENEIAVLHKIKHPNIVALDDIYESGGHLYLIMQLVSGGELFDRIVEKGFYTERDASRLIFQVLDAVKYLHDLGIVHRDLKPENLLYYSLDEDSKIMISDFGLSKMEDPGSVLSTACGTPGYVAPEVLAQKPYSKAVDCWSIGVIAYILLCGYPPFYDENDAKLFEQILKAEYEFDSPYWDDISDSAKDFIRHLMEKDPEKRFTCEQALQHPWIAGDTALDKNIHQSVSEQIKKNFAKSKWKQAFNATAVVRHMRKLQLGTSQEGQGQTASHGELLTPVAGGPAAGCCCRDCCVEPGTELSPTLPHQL

| Binder | IC50 (radiometric kinase assay), fold lower than the therapeutic inhibitor peptide incorporating the PTD peptide … [SEQ ID NO: 5] [1] | Kinase Activity, peptide at 300 µM, radiometric assay [2] | Kinase Activity, peptide at 300 µM, radiometric assay [3] | Kinase Activity, peptide at 300 µM, radiometric assay [4] | Kinase Activity, peptide at 300 µM, radiometric assay [5] | Kinase Activity, peptide at 300 µM, radiometric assay [6] | Kinase Activity, peptide at 300 µM, radiometric assay [7] | Kinase Activity, peptide at 300 µM, radiometric assay [8] | Kinase Activity, peptide at 300 µM, radiometric assay [9] | Kinase Activity, peptide at 300 µM, radiometric assay (SAPK2a (h) (p38α)) |
| --- | --- | --- | --- | --- | --- | --- | --- | --- | --- | --- |
| WLRRRIKAWLRRIKALNRQLGVAA | > 30 fold | – | – | – | – | – | – | – | – | – |
| YARAAARQARALARQLGVAA | – | -7% | 5% | 86% | 2% | 23% | 9% | 17% | 27% | 66% |
| YARAAARQARALNRQLGVAA | – | 10% | 19% | 81% | 8% | 68% | 66% | 96% | 95% | 100% |
